Publication PMC11865472, “Structures of TGF-β with betaglycan and signaling receptors reveal mechanisms of complex assembly and signaling” (Nature Communications, 2025)

Target: T1, inhibin A (InhA), mature heterodimer, unlabelled (UniProt P05111 233-366; P08476 311-426)
T1 construct: inhibin α subunit, residues 233-366 of NP_002182.1; inhibin βA subunit, residues 311-426 of NP_002183.1; The His and Strep tags stood on the two chains of the pro-inhibin; source: expi293F, secreted as pro-inhibin, purified by His and Strep tags; mature dimer purified on C18 RPC; copies: 1 + 1
T1 sequence (looked up) 1: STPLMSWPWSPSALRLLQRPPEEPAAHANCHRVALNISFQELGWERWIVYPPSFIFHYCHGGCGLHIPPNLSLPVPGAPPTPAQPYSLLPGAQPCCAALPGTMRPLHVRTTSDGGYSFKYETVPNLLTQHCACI
T1 sequence (looked up) 2: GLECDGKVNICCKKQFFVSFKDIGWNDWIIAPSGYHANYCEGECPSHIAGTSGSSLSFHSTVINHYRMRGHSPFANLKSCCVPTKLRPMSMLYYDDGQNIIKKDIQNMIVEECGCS
Test: NMR titration; methyl 1H-13C SOFAST-HMQC of labelled BG_ZP-C (15-25 µM) with growth factors; 25 mM 2H-glycine pH 11.0 or 25 mM phosphate pH 6.0; 37 °C
Conditions: both partners purified

- binding result: binds
B1: rat betaglycan ZP-C domain, bacterially expressed, isotopically labelled (domain or fragment, UniProt P26342 590-757, looked up)
chain: GNATFNMELYNTDLFLVPSPGVFSVAENEHVYVEVSVTKADQDLGFAIQTCFLSPYSNPDRMSDYTIIENICPKDDSVKFYSSKRVHFPIPHAEVDKKRFSFLFKSVFNTSLLFLHCELTLCSRKKGSLKLPRCVTPDDACTSLDATMIWTMMQNKKTFTKPLAVVLQ
modifications: 2H, 13C-methyl Isoleucine, Leucine, Valine (ILV) labeled
notes: betaglycan (TGFBR3), rat, residues 590-757 of NCBI NP_058952; A thrombin site lies between the Trx-His6 cassette and the domain; also called 13C-methyl-Ile BG_(ZP-C); ILV labeled BG_(ZP-C)
